From patent US20230192846A1 (University of California, published 2023) come the findings set out here.

Like-named read-outs stand apart in the source and are kept apart here. Some results are limits rather than exact numbers.

Experiment [1] concerns the target T1, recombinant human ROR2-extracellular domain (ROR2-ECD) (human, UniProt Q01974 34-403).
T1 construct: also called recombinant ROR2-extracellular protein; recombinant ROR2 protein
Briefly: KinExA 3200 kinetic exclusion assay; free scFv captured on particles coated with recombinant ROR2 protein, soluble ROR2 as titrant. The protocol:
FIGS. 12A and 12B. Affinity measurement and binding specificity of the 6E6 single chain variable fragment (scFv) for human ROR2. Analysis was performed using a KinExA 3200 instrument. (FIG. 12A) The proportion of the 6E6 anti-human ROR2 scFv bound to particles coated with recombinant ROR2 protein (y-axis) in the presence of increasing molar (M) concentration of soluble ROR2 competitor (x-axis) is shown. (FIG. 12B) Illustration of the 95% confidence interval for the measured Kd of 6E6 scFv for binding to recombinant human ROR2. (FIG. 12C) Binding of the 6E6 scFv to ROR2 was assessed by flow cytometric staining and analysis of K562 (ROR2 positive) and JEKO (ROR2 negative) cells. Cells were stained on ice for 20 minutes with ~1 ug/ml of 6E6 anti-human ROR2 scfv, washed, stained for an additional 20 minutes on ice with phycoerythrin (PE)-conjugated anti-human IgG1 antibody, washed and analyzed by flow cytometry. Shaded histograms depict the relative fluorescence intensity (x axis) of viable cells, as determined by light scatter characteristics, stained with 6E6 scfv compared to viable cells stained with the anti-human IgG1-PE antibody only (open histograms).
For orientation: A kinetic exclusion assay measures how much of one partner remains free in solution.

In experiment [2] the target is T1, recombinant human ROR2-extracellular …. Briefly: kinetic exclusion assay (KinExA), soluble recombinant ROR2. The protocol: (§1) FIGS. 4A and 4B. Affinity measurement of binding of the 6E6 and 4G9 mAb to recombinant ROR2 protein. (FIG. 4A) Analysis was performed using a KinExA 3200 instrument. The proportion of anti-human ROR2 mAb bound to particles coated with ROR2 protein (y-axis) in the presence of increasing molar (M) concentration of soluble ROR2 competitor (x-axis) is shown for 6E6 (upper panel) and 4G9 (lower panel). (FIG. 4B) Illustration of the 95% confidence interval for the measured Kd of 6E6 (upper panel) and 4G9 (lower panel) for binding to human ROR2.
(§2) Applicants assessed binding specificity and relative affinities of each mAb using recombinant ROR2-extracellular protein in an ELISA assay, in which binding was measured using decreasing/limiting amounts of ROR2 protein and assessed in combination with decreasing concentrations of each of the four mAb (FIG. 3). Higher absorbance values for 6E6 and 4G9 at both lower ROR2 protein amounts and lower concentrations of mAb, indicate these mAb have higher affinities compared to 5C11 and 5G3. Equilibrium dissociation constants (Kd) were measured in a kinetic exclusion assay (KinExA) that measures the equilibrium binding affinity and kinetics between unmodified molecules in solution.

The target of experiment [3] is T2, hKringle (mouse;human, UniProt Q9Z138;Q01974).
T2 construct: N-terminal part of the extracellular portion;C-terminal part of the extracellular portion with the Kringle domain; also called chimeric human/mouse recombinant ROR2 extracellular construct that contains the Kringle domain of human ROR2
T2 sequence (Q9Z138 other isoform, or with tags, fused parts or gaps limits assumed): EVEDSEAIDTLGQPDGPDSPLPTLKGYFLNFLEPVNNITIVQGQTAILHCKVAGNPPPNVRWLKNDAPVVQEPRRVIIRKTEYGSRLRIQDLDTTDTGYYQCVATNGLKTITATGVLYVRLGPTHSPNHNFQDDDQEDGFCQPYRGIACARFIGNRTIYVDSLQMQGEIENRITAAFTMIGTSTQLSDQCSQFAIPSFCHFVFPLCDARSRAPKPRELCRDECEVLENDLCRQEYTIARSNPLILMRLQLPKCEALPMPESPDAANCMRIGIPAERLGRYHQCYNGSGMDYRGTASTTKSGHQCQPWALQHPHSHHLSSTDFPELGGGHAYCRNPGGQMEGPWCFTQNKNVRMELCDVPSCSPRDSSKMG
Briefly: dot blot; recombinant protein on nylon membrane, probed with the mAb, HRP anti-mouse IgG. An excerpt: (§3) FIG. 5. Identification of the binding regions of anti-human ROR2 mAb by assessment of binding to chimeric […] recombinant ROR2 protein. […] Each recombinant protein was transferred onto nylon membrane, probed with the 6E6, 4G9, 5C11, 5G3 or anti-his tag mAb, and detected with an anti-mouse IgG antibody conjugated with horse radish peroxidase, as shown in the right panel. The […] and 5C11 mAbs bind to ROR2 recombinant proteins that contain the human kringle domain.
(§4) Applicants developed a series recombinant human/mouse hybrid proteins that isolate specific domains of the human ROR2 protein. These recombinant proteins were used to identify the specific binding domains that each of the four mAb target (FIG. 5). The 6E6 and 5C11 mAb bind to the Kringle domain of human, but not mouse, ROR2. […] None of the four mAb bind mouse ROR2.

For another experiment, the target named is T3, hCRD (mouse;human, UniProt Q9Z138;Q01974).
T3 construct: N-terminal part of the extracellular portion;cysteine rich domain (CRD);C-terminal part of the extracellular portion; also called chimeric human/mouse recombinant ROR2 extracellular construct that contains the cysteine rich domain of human ROR2
T3 sequence (Q9Z138 other isoform, or with tags, fused parts or gaps limits assumed): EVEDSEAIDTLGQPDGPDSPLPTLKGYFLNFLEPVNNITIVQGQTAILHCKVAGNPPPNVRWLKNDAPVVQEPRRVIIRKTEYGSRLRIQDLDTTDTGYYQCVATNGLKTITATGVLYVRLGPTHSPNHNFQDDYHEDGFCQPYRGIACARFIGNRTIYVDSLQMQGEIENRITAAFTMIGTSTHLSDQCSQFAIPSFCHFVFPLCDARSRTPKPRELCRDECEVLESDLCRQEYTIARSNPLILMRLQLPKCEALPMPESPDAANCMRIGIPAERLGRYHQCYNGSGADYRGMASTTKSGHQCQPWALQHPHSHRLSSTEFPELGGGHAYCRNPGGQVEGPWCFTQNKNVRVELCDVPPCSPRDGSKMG
The experiment is described as above.
Source text: as §3, §4

Experiment [4] concerns the target T4, mouse ROR2 (recombinant extracellular portion) (mouse, UniProt Q9Z138 34-403). The description is as above.
Source text: as §3, §4

For experiment [5], the target named is T1, recombinant human ROR2-extracellular …. Briefly: kinetic exclusion assay (KinExA), soluble recombinant ROR2. The protocol:
as §1, §2
The source holds these as a separate data set.

For another experiment, the target named is T5, h1-111 aa (human;mouse, UniProt Q01974;Q9Z138).
T5 construct: N-terminal part of the extracellular portion;C-terminal part of the extracellular portion; A tag is not described, but the blot was also probed with an anti-his tag mAb
T5 sequence (Q01974 other isoform, or with tags, fused parts or gaps limits assumed): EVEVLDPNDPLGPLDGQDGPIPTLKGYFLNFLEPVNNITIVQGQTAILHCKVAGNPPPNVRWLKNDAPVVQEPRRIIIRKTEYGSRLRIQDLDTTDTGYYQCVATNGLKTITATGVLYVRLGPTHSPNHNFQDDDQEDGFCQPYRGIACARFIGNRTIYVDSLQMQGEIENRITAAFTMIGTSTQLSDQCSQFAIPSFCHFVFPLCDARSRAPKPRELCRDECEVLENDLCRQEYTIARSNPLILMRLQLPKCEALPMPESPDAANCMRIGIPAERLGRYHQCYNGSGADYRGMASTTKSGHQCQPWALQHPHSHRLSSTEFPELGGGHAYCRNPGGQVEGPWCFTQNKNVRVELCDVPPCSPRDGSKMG
The experiment in a line: dot blot; recombinant protein on nylon membrane, probed with the mAb, HRP anti-mouse IgG.
Source text: as §3, §4

A further experiment concerns the target T6, h1-160 aa (human;mouse, UniProt Q01974;Q9Z138).
T6 construct: N-terminal part of the extracellular portion;C-terminal part of the extracellular portion; also called chimeric human/mouse recombinant ROR2 extracellular construct with the first 160 amino acids of human ROR2
The description is as above.
Source text: as §3, §4

The target of experiment [6] is T1, recombinant human ROR2-extracellular …. The experiment in a line: KinExA 3200 kinetic exclusion assay; free mAb captured on particles coated with ROR2 protein, soluble ROR2 as titrant. On the procedure:
as §1, §2

For experiment [7], the target named is T7, recombinant human ROR2 with histidine 349 replaced by the arginine of mouse ROR2 (human, UniProt Q01974 34-403).
T7 construct: also called human ROR2 H349R
T7 sequence (Q01974 34-403 H349R limits assumed): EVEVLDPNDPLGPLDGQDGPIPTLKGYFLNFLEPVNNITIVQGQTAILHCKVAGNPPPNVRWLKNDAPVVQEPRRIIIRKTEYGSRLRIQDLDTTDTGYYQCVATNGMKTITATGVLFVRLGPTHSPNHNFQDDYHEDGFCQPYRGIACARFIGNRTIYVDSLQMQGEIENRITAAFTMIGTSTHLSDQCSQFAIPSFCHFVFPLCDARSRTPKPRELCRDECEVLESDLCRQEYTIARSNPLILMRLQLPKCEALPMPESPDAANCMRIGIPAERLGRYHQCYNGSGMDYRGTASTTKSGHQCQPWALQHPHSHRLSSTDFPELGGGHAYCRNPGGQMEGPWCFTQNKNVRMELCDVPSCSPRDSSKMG
Briefly: dot blot; recombinant protein on nylon membrane, probed with the mAb, HRP anti-mouse IgG.

Experiment [8] has as its target T8, recombinant human ROR2 with aspartic acid 354 replaced by the glutamic acid of mouse ROR2 (human, UniProt Q01974 34-403).
T8 construct: also called human ROR2 D354E
The experiment is described as above.

The target in experiment [9] is T9, human ROR2 expressed on cells (human, UniProt Q01974 34-943).
T9 construct: Full-length human ROR2 entry; endogenous on cell lines and PDX cells, transfected in MCF7-ROR2; also called ROR2 surface antigen; human ROR2 on K562, BR1936 PDX, MCF7-ROR2 and other ROR2-expressing cell lines
T9 sequence (Q01974 34-943 limits assumed): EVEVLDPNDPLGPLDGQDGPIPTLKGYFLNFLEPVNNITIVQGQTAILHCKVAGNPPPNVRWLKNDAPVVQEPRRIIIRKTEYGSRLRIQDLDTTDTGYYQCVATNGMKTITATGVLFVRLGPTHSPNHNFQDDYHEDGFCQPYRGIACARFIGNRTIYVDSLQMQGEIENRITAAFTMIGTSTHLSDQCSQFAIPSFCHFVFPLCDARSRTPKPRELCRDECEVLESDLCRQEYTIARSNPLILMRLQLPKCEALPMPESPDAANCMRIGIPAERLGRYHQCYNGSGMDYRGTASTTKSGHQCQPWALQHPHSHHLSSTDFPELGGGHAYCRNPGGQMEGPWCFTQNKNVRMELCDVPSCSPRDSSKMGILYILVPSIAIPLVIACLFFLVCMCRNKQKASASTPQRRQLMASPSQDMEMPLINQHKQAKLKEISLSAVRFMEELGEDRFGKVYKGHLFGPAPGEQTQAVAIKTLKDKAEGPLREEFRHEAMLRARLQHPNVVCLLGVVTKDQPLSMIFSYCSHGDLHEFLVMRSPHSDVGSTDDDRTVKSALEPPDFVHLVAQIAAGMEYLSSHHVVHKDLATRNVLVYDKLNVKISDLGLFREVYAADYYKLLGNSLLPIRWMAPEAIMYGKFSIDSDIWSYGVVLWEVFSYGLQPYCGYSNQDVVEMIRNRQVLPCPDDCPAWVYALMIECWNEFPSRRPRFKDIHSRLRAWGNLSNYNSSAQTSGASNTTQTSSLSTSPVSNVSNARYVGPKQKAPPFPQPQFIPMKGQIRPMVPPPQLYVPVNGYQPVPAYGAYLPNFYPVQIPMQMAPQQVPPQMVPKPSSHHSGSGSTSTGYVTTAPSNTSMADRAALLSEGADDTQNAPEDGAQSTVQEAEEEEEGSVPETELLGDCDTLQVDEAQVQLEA
The experiment in a line: flow cytometry on ROR2-expressing cells. (In general: In flow cytometry, cells or beads pass a laser one at a time.)

For experiment [10], the target named is T1, recombinant human ROR2-extracellular …. Briefly: ELISA. Background: ELISA stands for enzyme-linked immunosorbent assay.
For experiment [11], the target named is T4, mouse ROR2 (recombinant extracellular …). Briefly: dot blot; recombinant protein on nylon membrane, probed with the mAb, HRP anti-mouse IgG. This is another data set of the same source.
The target in experiment [12] is T10, recombinant human ROR2 with methionine 386 replaced by the valine of mouse ROR2 (human, UniProt Q01974 34-403).
T10 construct: also called human ROR2 M386V
T10 sequence (Q01974 other isoform, or with tags, fused parts or gaps limits assumed): as the sequence (Q01974 34-403 H349R limits assumed) above, with R316H, M353V counted along it
The experiment is described as above.

The target in experiment [13] is T2, hKringle. The experiment is described as above. The source holds these as a separate data set.

T4 sequence (Q9Z138 other isoform, or with tags, fused parts or gaps limits assumed): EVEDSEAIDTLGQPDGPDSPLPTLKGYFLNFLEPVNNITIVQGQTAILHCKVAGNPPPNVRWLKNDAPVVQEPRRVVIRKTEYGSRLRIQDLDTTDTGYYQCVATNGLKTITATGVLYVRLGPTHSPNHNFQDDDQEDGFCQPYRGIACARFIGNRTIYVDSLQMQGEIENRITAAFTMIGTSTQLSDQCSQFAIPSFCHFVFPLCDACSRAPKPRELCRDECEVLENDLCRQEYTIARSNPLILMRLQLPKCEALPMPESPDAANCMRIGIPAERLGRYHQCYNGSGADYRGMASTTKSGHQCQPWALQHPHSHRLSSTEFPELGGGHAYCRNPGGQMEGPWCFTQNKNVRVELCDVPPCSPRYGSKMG
T1 sequence (Q01974 34-403 limits assumed): as the sequence (Q01974 34-403 H349R limits assumed) above, with R316H counted along it
T8 sequence (Q01974 34-403 D354E limits assumed): as the sequence (Q01974 34-403 H349R limits assumed) above, with R316H, D321E counted along it
T6 sequence (Q01974 other isoform, or with tags, fused parts or gaps limits assumed): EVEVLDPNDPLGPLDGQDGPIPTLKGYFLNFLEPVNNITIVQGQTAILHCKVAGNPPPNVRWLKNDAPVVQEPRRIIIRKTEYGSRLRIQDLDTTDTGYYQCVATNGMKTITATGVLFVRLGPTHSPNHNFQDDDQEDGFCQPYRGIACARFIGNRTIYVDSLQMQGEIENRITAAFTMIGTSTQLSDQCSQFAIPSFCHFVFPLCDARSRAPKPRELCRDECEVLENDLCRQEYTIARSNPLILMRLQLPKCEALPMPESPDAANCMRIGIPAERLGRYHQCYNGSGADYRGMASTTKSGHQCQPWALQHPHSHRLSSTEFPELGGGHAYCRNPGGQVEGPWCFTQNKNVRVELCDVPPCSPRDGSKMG

B1: 6E6 single chain variable fragment (scFv) (scFv)
scFv: DIVMTQSHKFMSTSIGDRVSITCKASQDVGHYVAWYQQKPGQSPKLLIYWASTRHTGVPDRFTGSGSGTDFTLTISNVQSEDLADYFCQQYNIYPWTFGGGSKLAIKGSTSGSGKPGSGEGSTKGEVQLVESGGDLVKPGGSLKLSCAASGFTFSNYGMSWVRQTPDKRLEWVATISSGGGYTHYVDSVKGRFTISRDNANHILYLQMSSLNSEDTAMYYCARHPRDFSYAMDYWGQGTSVTVSSEFLFPPKPKDTLMISRTPEVTCVVVDVSHEDPEVKFNWYVDGVEVHNAKTKPREEQYNSTYRVVSVLTVLHQDWLNGKEYKCKVSNKALPAPIEKTISKAKGQPREPQVYTLPPSREEMTKNQVSLTCLVKGFYPSDIAVEWESNGQPENNYKTTPPVLDSDGSFFLYSKLTVDESRWQQGNVFSCSVMHEALHNHYTQKSLSLSPGK
notes: scFv fused to CH2-CH3 of human IgG1; the leader is left out here; also called 6E6 scFv; 6E6 anti-human ROR2 scFv
In general, Kd refers to the equilibrium constant for the complex coming apart. Regarding B1, in experiment [1], the Kd was 0.0737 nM.

B2: 5G3 anti-human ROR2 monoclonal antibody (antibody, IgG2a, V domains shown)
VH: EVQLVESGGGLVQPKGSLKLSCAASGFTFNTYAMNWVRQAPGKGLEWVARIRSKSNNYATYYADSVKDRFTISRDDSQSMLHLQMNNLKTEDTAMYYCVRHGSSLYYAMDYWGQGTSVTVSS
VL: DIQMTQSPSSLSASLGERVSLTCRASQEISGYLGWLQQKPDGTIKRLIYAASTLDSGVPKRFSGSRSGSAYSLTISSLESEDFADYYCLQYASYPYTFGGGTKLEIK
notes: also called 5G3 mAb
As to B2, in [2], the dissociation constant (Kd) was above 40 nM. Also, the binding result (with hKringle [3]; with hCRD; in experiment [4]) was “no binding” in each case.

B3: 6E6 anti-human ROR2 monoclonal antibody (antibody, IgG1, V domains shown)
VH: EVQLVESGGDLVKPGGSLKLSCAASGFTFSNYGMSWVRQTPDKRLEWVATISSGGGYTHYVDSVKGRFTISRDNANHILYLQMSSLNSEDTAMYYCARHPRDFSYAMDYWGQGTSVTVSS
VL: DIVMTQSHKFMSTSIGDRVSITCKASQDVGHYVAWYQQKPGQSPKLLIYWASTRHTGVPDRFTGSGSGTDFTLTISNVQSEDLADYFCQQYNIYPWTFGGGSKLAIK
notes: Used conjugated with Alexa647 in flow cytometry and with pHrodo in the internalisation assay; also called 6E6 mAb
For B3, the Kd in experiment [2] was below 0.1 nM; in experiment [5] it was around 0.1 nM; in experiment [6], 0.0556 nM. Moreover, the binding result (with h1-111 aa; with hCRD; in [4]; in the experiment with h1-160 aa; in experiment [7]; in [8]) was “no binding” in each case.

B4: 4G9 single chain variable fragment (scFv) (scFv)
scFv: DIVMTQAAPSVPVTPGESVSISCRSSKSLLHSNGNTYLYWFLQRPGQSPQLLIYRMSNLASGVPDRFSGSGSGTAFTLRISRVEAEDVGVYYCMQHLEYPLTVGAGTKLELKGSTSGSGKPGSGEGSTKGQVQLQQSGAELVRPGASVKLSCKALGYTFTDYEMHWVKQTPVHGLEWIGAIHPGSGGTAYNQKFKGKATLTADKSSSTAYMELSRLTSEDSAVYYCTRRRPRFYGMDYWGQGTSVTVSSEFLFPPKPKDTLMISRTPEVTCVVVDVSHEDPEVKFNWYVDGVEVHNAKTKPREEQYNSTYRVVSVLTVLHQDWLNGKEYKCKVSNKALPAPIEKTISKAKGQPREPQVYTLPPSREEMTKNQVSLTCLVKGFYPSDIAVEWESNGQPENNYKTTPPVLDSDGSFFLYSKLTVDESRWQQGNVFSCSVMHEALHNHYTQKSLSLSPGK
notes: scFv fused to CH2-CH3 of human IgG1; the leader is left out here; also called 4G9 scFv
Turning to B4, the binding result in [9] and in experiment [10] was “binds” in each case.

B5: 5C11 anti-human ROR2 monoclonal antibody (antibody, IgG1, V domains shown)
VH: EVQLVESGGDLVKPGGSLKLSCAASGFTFSNYGMSWVRQTPDKRLEWVATISSGGGSTYYPDSVKGRFTISRDNAKNSLYLQMSSLKSEDTAMYYCARHPYDYGYYFDYWGQGTTLTVSS
VL: DILLTQSPDILSVSPGERVSFSCRASQSIGTSIHWYQQRTNGSPRLLIKYASESISGIPSRFSGSGSGTDFTLSINSVESEDIADYYCQQSDSWPFPFGSGTKLEKK
notes: also called 5C11 mAb
As to B5, the Kd in [2] was above 40 nM. In addition, the binding result (in the experiment with h1-111 aa; with hCRD; with h1-160 aa; in [7]; in experiment [11]; in experiment [12]) was “no binding” in each case. Also, the binding result in experiment [8] is on record as “no binding”.

B6: 4G9 anti-human ROR2 monoclonal antibody (antibody, IgG2a, V domains shown)
VH: QVQLQQSGAELVRPGASVKLSCKALGYTFTDYEMHWVKQTPVHGLEWIGAIHPGSGGTAYNQKFKGKATLTADKSSSTAYMELSRLTSEDSAVYYCTRRRPRFYGMDYWGQGTSVTVSS
VL: DIVMTQAAPSVPVTPGESVSISCRSSKSLLHSNGNTYLYWFLQRPGQSPQLLIYRMSNLASGVPDRFSGSGSGTAFTLRISRVEAEDVGVYYCMQHLEYPLTVGAGTKLELK
notes: Used conjugated with Alexa647 in flow cytometry and with pHrodo in the internalisation assay; also called 4G9 mAb
Take B6: the results for the Kd in experiment [2], in experiment [5] and in [6] were around 1.9 nM, around 2 nM and 1.9 nM, respectively. Moreover, the binding result (with hCRD; in the experiment with hKringle [13]; in experiment [11]) was “no binding” each time.
